Laboratory results published in paper PMC3979106 (Structure(London, England:1993), 2014).

T1: Human Ube2T Ser5Arg (human, UniProt Q9NPD8 1-197, Ser5Arg)
T1 construct: Ube2T, human, point mutant; also called Ser5Arg-Ube2T; source: E. coli, expressed as WT protein, purified; not shown: 6xHis-Smt3, N-terminal, cleaved
T1 sequence (looked up): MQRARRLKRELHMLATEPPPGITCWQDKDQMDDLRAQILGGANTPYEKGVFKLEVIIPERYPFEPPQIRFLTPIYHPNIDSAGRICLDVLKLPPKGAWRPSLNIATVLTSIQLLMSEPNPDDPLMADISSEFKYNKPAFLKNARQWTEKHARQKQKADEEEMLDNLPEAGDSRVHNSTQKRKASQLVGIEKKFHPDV

T2: Human Ube2T Arg99Ser/Ser101Arg (human, UniProt Q9NPD8 1-197, Arg99Ser | Ser101Arg)
T2 construct: Ube2T, human, double point mutant; also called Arg99Ser/Ser101Arg-Ube2T; source: E. coli, expressed as WT protein, purified; not shown: 6xHis-Smt3, N-terminal, cleaved
T2 sequence (looked up): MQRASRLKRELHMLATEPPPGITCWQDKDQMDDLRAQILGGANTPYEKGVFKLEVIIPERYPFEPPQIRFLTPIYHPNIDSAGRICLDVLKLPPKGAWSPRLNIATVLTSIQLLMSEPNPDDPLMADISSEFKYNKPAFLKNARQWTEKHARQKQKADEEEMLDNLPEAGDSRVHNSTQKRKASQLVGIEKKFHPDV


Legend:
Ube2T (Homo sapiens) = Ube2T (Homo sapiens) (UniProt Q9NPD8); details: cited from earlier work
Human Ube2T Ser5Arg = target: T1, Human Ube2T Ser5Arg; assay: SEC; analytical size-exclusion chromatography, Superdex 75 10/300; RING domain and one E2 incubated 1 hr on ice in 0.1 M NaCl, 0.1 M Tris pH 8, 250 μM TCEP; complex read as a peak shift to the left; details: both partners purified
[1] = target: T2, Human Ube2T Arg99Ser/Ser101Arg; assay: as above; details: both partners purified

Chain of FANCL (Q9NW38 2-375): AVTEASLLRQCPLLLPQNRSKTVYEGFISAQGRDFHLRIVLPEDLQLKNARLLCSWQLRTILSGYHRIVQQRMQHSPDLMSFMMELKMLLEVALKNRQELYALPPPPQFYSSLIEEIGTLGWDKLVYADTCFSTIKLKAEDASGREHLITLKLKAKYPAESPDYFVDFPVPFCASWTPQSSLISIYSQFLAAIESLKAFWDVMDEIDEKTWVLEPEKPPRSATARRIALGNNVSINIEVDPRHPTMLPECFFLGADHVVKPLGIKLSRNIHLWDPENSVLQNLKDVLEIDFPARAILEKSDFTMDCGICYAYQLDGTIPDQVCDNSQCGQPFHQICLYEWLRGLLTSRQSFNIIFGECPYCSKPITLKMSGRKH

| binding result (Human Ube2T Ser5Arg) | binding result [1] | Molecule | Kd (Ube2T (Homo sapiens)) |
| --- | --- | --- | --- |
| – | – | FANCL (from UniProt Q9NW38) | 500 nM |
| binds | binds | Human FANCL RING domain (residues 289–375) (domain or fragment, UniProt Q9NW38 289-375, looked up, FANCL, human, RING domain, residues 289-375, cloned from synthetic codon-optimised human FANCL DNA (GeneArt); also called WT RING; source: E. coli BL21, purified (Ni-NTA, Ulp1 cleavage, Superdex); not shown: 6xHis-Smt3, N-terminal, cleaved) EIDFPARAILEKSDFTMDCGICYAYQLDGTIPDQVCDNSQCGQPFHQICLYEWLRGLLTSRQSFNIIFGECPYCSKPITLKMSGRKH | – |
